Test results taken from publication PMC10847504.

Molecular target: CNOT1 of the CCR4-NOT complex, endogenous
Assay: GFP-trap pull-down, Western blot quantification
Conditions: lentivirally transduced neurons, read off a plot
[1] = NMDA 3 min, 10 min incubation after NMDA washout, parent: est. 1.4
[2] = vehicle (no NMDA) 3 min, 10 min incubation after washout, parent: est. 0.94

| ratio to parent [1] | ratio to parent [2] | Substance |
| --- | --- | --- |
| 0.81 | 0.75 | GFP-Ago2(WT) (from UniProt Q9UKV8) S387A |
| 1.3 | 1.3 | GFP-Ago2(WT) (from UniProt Q9UKV8) S387D |
